Measurements taken from patent US20240369568A1.

What was measured:
Assay in all cases: SPR, release and stability method, specific binding activity
[1] = target: FcγRIIIa (UniProt P08637)
[2] = target: BCMA (the 'Antigen' of the SPR antigen binding assay) (human) (UniProt Q02223)
[3] = target: FcRn (UniProt P55899)
Chain of FcRn (P55899 24-297 limits assumed, chain 1 of 2): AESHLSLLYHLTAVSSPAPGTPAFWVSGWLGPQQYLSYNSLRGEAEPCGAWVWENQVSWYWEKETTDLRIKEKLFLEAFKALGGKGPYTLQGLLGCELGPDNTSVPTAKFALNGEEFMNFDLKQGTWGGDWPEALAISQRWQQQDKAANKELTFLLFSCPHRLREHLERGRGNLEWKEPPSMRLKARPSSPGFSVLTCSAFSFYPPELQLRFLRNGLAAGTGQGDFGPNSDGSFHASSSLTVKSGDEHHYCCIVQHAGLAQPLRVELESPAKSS
Chain of FcRn (P61769 21-119 limits assumed, chain 2 of 2, further chain): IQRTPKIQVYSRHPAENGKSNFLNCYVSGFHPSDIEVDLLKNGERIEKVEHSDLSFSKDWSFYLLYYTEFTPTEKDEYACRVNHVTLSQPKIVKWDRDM

Chain of BCMA (the 'Antigen' of the SPR antigen binding assay) (human) (Q02223 1-54 limits assumed): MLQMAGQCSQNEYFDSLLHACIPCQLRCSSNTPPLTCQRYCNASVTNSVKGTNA
Chain of FcγRIIIa (P08637 17-208 limits assumed): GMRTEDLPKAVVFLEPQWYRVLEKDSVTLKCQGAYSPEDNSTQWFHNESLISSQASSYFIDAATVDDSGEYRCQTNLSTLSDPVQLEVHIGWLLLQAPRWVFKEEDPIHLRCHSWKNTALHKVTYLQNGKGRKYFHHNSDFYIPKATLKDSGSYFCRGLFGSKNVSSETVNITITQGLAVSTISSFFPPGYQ

Control (sample of Table 11)
FcyRIIIa Binding (%) (specific binding activity) [1]: 97%
Antigen Binding (%) (specific binding activity) [2]: 96%
FcRNn Binding (%) (specific binding activity) [3]: 101%
